Source: article PMC9482650, “Quantitative fragmentomics allow affinity mapping of interactomes” (Nature Communications, 2022)

B1: CLDN7, O95471 (peptide)
chain: PKSNSSKEYV
B2: JAM2, P57087 (peptide)
chain: DFKHTKSFII

Target: PDLIM1, O00151
Test: holdup assay
Parameters: key: below the threshold = too weak to quantify, mostly under pKd 3.1 to 4
Conditions: plain residues with an end cap or a label only (N-terminal biotin on a linker: ado-ado)

PDLIM1, O00151, sequence (O00151 1-87): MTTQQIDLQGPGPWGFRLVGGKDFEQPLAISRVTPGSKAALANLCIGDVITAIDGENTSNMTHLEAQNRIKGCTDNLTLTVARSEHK

Row | Binder | pKd
1 | B1 | below the threshold
2 | B2 | below the threshold

Target: SCRIB_1, Q14160
Test: holdup assay
Parameters: key: below the threshold = too weak to quantify, mostly under pKd 3.1 to 4
Conditions: plain residues with an end cap or a label only (N-terminal biotin on a linker: ado-ado)

SCRIB_1, Q14160, sequence (Q14160 718-814): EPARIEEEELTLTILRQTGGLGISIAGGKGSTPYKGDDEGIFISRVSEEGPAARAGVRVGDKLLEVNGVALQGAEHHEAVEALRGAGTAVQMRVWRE

Row | Binder | pKd
3 | B1 | below the threshold
4 | B2 | below the threshold

Target: Inadl_1, Q8NI35
Test: holdup assay
Parameters: key: below the threshold = too weak to quantify, mostly under pKd 3.1 to 4
Conditions: plain residues with an end cap or a label only (N-terminal biotin on a linker: ado-ado)

Inadl_1, Q8NI35, sequence (Q8NI35 113-229): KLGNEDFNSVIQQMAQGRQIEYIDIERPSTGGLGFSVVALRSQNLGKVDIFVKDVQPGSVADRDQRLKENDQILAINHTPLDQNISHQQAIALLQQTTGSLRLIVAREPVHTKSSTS

Row | Binder | pKd
5 | B1 | below the threshold
6 | B2 | below the threshold

Target: SCRIB_3, Q14160
Test: holdup assay
Parameters: key: below the threshold = too weak to quantify, mostly under pKd 3.1 to 4
Conditions: plain residues with an end cap or a label only (N-terminal biotin on a linker: ado-ado)

SCRIB_3, Q14160, sequence (Q14160 999-1103): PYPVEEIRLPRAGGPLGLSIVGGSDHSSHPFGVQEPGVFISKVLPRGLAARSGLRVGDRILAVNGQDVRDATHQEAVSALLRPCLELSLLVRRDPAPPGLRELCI

Row | Binder | pKd
7 | B1 | below the threshold
8 | B2 | 3.65

Target: IL16_1, Q14005
Test: holdup assay
Parameters: key: below the threshold = too weak to quantify, mostly under pKd 3.1 to 4
Conditions: plain residues with an end cap or a label only (N-terminal biotin on a linker: ado-ado)

IL16_1, Q14005, sequence (Q14005 210-306): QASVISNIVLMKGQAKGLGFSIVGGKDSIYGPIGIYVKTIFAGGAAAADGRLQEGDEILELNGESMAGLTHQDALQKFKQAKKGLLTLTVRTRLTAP

Row | Binder | pKd
9 | B1 | below the threshold
10 | B2 | below the threshold

Target: GRIP2_6, Q9C0E4
Test: holdup assay
Parameters: key: below the threshold = too weak to quantify, mostly under pKd 3.1 to 4
Conditions: plain residues with an end cap or a label only (N-terminal biotin on a linker: ado-ado)

GRIP2_6, Q9C0E4, sequence (Q9C0E4 648-740): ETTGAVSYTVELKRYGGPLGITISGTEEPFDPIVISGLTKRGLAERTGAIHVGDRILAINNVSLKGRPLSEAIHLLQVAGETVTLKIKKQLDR

Row | Binder | pKd
11 | B1 | below the threshold
12 | B2 | 4.41

Target: T1, MPDZ_10, O75970
T1 sequence (O75970 1624-1722, limits assumed, looked up): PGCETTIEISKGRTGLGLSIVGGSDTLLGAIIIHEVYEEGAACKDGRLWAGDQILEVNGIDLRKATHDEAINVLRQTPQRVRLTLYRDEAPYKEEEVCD
Test: holdup assay
Parameters: key: below the threshold = too weak to quantify, mostly under pKd 3.1 to 4
Conditions: plain residues with an end cap or a label only (N-terminal biotin on a linker: ado-ado)

Row | Binder | pKd
13 | B1 | below the threshold
14 | B2 | below the threshold

Target: T2, PDZRN3_1, Q9UPQ7
T2 sequence (Q9UPQ7 244-349, limits assumed, looked up): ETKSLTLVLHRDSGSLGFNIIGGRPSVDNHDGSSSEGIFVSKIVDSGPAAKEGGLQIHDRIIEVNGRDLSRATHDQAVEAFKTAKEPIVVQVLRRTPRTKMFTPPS
Test: holdup assay
Parameters: key: below the threshold = too weak to quantify, mostly under pKd 3.1 to 4
Conditions: plain residues with an end cap or a label only (N-terminal biotin on a linker: ado-ado)

Row | Binder | pKd
15 | B1 | below the threshold
16 | B2 | below the threshold

Target: T3, MPP7, Q5T2T1
T3 sequence (Q5T2T1 134-230, limits assumed, looked up): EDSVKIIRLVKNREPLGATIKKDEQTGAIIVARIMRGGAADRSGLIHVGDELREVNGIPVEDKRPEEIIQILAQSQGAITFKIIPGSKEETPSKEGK
Test: holdup assay
Parameters: key: below the threshold = too weak to quantify, mostly under pKd 3.1 to 4
Conditions: plain residues with an end cap or a label only (N-terminal biotin on a linker: ado-ado)

Row | Binder | pKd
17 | B1 | below the threshold
18 | B2 | 3.75

Target: T4, RHPN1, Q8TCX5
T4 sequence (Q8TCX5 508-602, limits assumed, looked up): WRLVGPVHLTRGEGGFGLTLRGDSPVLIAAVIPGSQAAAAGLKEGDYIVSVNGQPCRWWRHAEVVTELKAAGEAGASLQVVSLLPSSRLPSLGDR
Test: holdup assay
Parameters: key: below the threshold = too weak to quantify, mostly under pKd 3.1 to 4
Conditions: plain residues with an end cap or a label only (N-terminal biotin on a linker: ado-ado)

Row | Binder | pKd
19 | B1 | below the threshold
20 | B2 | below the threshold

Target: NHERF4_4, Q86UT5
Test: holdup assay
Parameters: key: below the threshold = too weak to quantify, mostly under pKd 3.1 to 4
Conditions: plain residues with an end cap or a label only (N-terminal biotin on a linker: ado-ado)

NHERF4_4, Q86UT5, sequence (Q86UT5 464-550): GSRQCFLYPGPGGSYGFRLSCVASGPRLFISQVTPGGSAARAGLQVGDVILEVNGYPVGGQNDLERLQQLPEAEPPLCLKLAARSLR

Row | Binder | pKd
21 | B1 | below the threshold
22 | B2 | below the threshold

Target: T5, FRMPD1, Q5SYB0
T5 sequence (Q5SYB0 52-145, limits assumed, looked up): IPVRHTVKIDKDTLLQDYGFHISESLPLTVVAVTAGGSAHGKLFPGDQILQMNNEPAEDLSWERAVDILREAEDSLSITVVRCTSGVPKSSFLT
Test: holdup assay
Parameters: key: below the threshold = too weak to quantify, mostly under pKd 3.1 to 4
Conditions: plain residues with an end cap or a label only (N-terminal biotin on a linker: ado-ado)

Row | Binder | pKd
23 | B1 | below the threshold
24 | B2 | below the threshold

Target: NHERF4_1, Q86UT5-2
Test: holdup assay
Parameters: key: below the threshold = too weak to quantify, mostly under pKd 3.1 to 4
Conditions: plain residues with an end cap or a label only (N-terminal biotin on a linker: ado-ado)

NHERF4_1, Q86UT5-2, sequence (Q86UT5 other isoform, or with tags, fused parts or gaps): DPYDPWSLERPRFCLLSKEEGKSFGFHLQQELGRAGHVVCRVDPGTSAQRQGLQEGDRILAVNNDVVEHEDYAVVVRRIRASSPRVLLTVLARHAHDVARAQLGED

Row | Binder | pKd
25 | B1 | below the threshold
26 | B2 | below the threshold

Target: DLG4_1, P78352
Test: holdup assay
Parameters: key: below the threshold = too weak to quantify, mostly under pKd 3.1 to 4
Conditions: plain residues with an end cap or a label only (N-terminal biotin on a linker: ado-ado)

DLG4_1, P78352, sequence (P78352 62-152): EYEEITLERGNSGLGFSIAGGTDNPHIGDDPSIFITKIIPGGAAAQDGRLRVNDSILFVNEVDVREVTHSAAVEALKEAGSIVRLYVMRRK

Row | Binder | pKd
27 | B1 | below the threshold
28 | B2 | below the threshold

Target: FRMPD2_2, Q68DX3
Test: holdup assay
Parameters: key: below the threshold = too weak to quantify, mostly under pKd 3.1 to 4
Conditions: plain residues with an end cap or a label only (N-terminal biotin on a linker: ado-ado)

FRMPD2_2, Q68DX3, sequence (Q68DX3 944-1038): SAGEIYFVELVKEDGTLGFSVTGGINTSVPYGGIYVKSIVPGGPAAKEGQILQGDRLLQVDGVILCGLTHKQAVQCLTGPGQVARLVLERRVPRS

Row | Binder | pKd
29 | B1 | below the threshold
30 | B2 | below the threshold

Target: Inadl_3, Q8NI35
Test: holdup assay
Parameters: key: below the threshold = too weak to quantify, mostly under pKd 3.1 to 4
Conditions: plain residues with an end cap or a label only (N-terminal biotin on a linker: ado-ado)

Inadl_3, Q8NI35, sequence (Q8NI35 359-469): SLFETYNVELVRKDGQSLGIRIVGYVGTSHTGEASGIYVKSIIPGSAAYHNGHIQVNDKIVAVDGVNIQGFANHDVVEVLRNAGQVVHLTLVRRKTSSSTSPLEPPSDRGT

Row | Binder | pKd
31 | B1 | below the threshold
32 | B2 | 4.45

Target: T6, HTRA3, P83110
T6 sequence (P83110 354-453, limits assumed, looked up): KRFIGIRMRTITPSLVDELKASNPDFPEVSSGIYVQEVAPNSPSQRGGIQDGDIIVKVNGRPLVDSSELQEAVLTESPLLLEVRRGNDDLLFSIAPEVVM
Test: holdup assay
Parameters: key: below the threshold = too weak to quantify, mostly under pKd 3.1 to 4
Conditions: plain residues with an end cap or a label only (N-terminal biotin on a linker: ado-ado)

Row | Binder | pKd
33 | B1 | 3.8
34 | B2 | 4.1

Target: TJP1_2, Q07157
Test: holdup assay
Parameters: key: below the threshold = too weak to quantify, mostly under pKd 3.1 to 4
Conditions: plain residues with an end cap or a label only (N-terminal biotin on a linker: ado-ado)

TJP1_2, Q07157, sequence (Q07157 181-274): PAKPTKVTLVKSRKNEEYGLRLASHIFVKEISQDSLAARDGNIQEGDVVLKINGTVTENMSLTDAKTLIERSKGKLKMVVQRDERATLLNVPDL

Row | Binder | pKd
35 | B1 | below the threshold
36 | B2 | below the threshold

Target: Inadl_4, Q8NI35
Test: holdup assay
Parameters: key: below the threshold = too weak to quantify, mostly under pKd 3.1 to 4
Conditions: plain residues with an end cap or a label only (N-terminal biotin on a linker: ado-ado)

Inadl_4, Q8NI35, sequence (Q8NI35 547-651): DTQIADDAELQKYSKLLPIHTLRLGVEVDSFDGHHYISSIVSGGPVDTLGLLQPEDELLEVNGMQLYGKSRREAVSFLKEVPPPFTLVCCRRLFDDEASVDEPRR

Row | Binder | pKd
37 | B1 | below the threshold
38 | B2 | below the threshold

Target: T7, LRRC7, Q96NW7
T7 sequence (Q96NW7 1440-1537, limits assumed, looked up): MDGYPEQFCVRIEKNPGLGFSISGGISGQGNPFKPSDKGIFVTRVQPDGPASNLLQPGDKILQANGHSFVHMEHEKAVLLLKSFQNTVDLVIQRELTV
Test: holdup assay
Parameters: key: below the threshold = too weak to quantify, mostly under pKd 3.1 to 4
Conditions: plain residues with an end cap or a label only (N-terminal biotin on a linker: ado-ado)

Row | Binder | pKd
39 | B1 | below the threshold
40 | B2 | below the threshold

Target: T8, DFNB31_2, Q9P202
T8 sequence (Q9P202 274-371, limits assumed, looked up): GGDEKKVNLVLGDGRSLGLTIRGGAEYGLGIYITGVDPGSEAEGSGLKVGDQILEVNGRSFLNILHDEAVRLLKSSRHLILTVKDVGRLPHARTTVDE
Test: holdup assay
Parameters: key: below the threshold = too weak to quantify, mostly under pKd 3.1 to 4
Conditions: plain residues with an end cap or a label only (N-terminal biotin on a linker: ado-ado)

Row | Binder | pKd
41 | B1 | below the threshold
42 | B2 | below the threshold

Target: T9, ARHGAP21, Q5T5U3
T9 sequence (Q5T5U3 45-169, limits assumed, looked up): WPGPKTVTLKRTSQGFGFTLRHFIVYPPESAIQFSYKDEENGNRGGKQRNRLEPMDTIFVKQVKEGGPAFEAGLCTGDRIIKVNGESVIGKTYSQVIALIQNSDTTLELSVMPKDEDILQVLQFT
Test: holdup assay
Parameters: key: below the threshold = too weak to quantify, mostly under pKd 3.1 to 4
Conditions: plain residues with an end cap or a label only (N-terminal biotin on a linker: ado-ado)

Row | Binder | pKd
43 | B1 | below the threshold
44 | B2 | below the threshold

Target: T10, SNTB1, Q13884
T10 sequence (Q13884 107-205, limits assumed, looked up): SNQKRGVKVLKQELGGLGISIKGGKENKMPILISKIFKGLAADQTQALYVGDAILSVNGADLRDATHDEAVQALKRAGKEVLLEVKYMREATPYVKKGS
Test: holdup assay
Parameters: key: below the threshold = too weak to quantify, mostly under pKd 3.1 to 4
Conditions: plain residues with an end cap or a label only (N-terminal biotin on a linker: ado-ado)

Row | Binder | pKd
45 | B1 | below the threshold
46 | B2 | below the threshold

Target: GORASP2, Q9H8Y8
Test: holdup assay
Parameters: key: below the threshold = too weak to quantify, mostly under pKd 3.1 to 4
Conditions: plain residues with an end cap or a label only (N-terminal biotin on a linker: ado-ado)

Row | Binder | pKd
47 | B1 | 3.6
48 | B2 | 5.6

Target: GORASP1, Q9BQQ3
Test: holdup assay
Parameters: key: below the threshold = too weak to quantify, mostly under pKd 3.1 to 4
Conditions: plain residues with an end cap or a label only (N-terminal biotin on a linker: ado-ado)

GORASP1, Q9BQQ3, sequence (Q9BQQ3 1-208): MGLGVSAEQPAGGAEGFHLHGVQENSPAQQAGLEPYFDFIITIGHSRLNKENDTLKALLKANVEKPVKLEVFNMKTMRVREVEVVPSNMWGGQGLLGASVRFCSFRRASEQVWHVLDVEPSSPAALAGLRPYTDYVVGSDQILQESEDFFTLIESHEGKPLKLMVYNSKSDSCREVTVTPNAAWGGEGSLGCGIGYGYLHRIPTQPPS

Row | Binder | pKd
49 | B1 | below the threshold
50 | B2 | 5.07

Target: T11, MPDZ_5, O75970
T11 sequence (O75970 695-796, limits assumed, looked up): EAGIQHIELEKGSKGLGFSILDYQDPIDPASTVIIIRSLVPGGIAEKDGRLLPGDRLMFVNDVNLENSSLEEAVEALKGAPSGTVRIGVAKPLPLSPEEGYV
Test: holdup assay
Parameters: key: below the threshold = too weak to quantify, mostly under pKd 3.1 to 4
Conditions: plain residues with an end cap or a label only (N-terminal biotin on a linker: ado-ado)

Row | Binder | pKd
51 | B1 | below the threshold
52 | B2 | below the threshold

Target: DLG2_3, Q15700
Test: holdup assay
Parameters: key: below the threshold = too weak to quantify, mostly under pKd 3.1 to 4
Conditions: plain residues with an end cap or a label only (N-terminal biotin on a linker: ado-ado)

Row | Binder | pKd
53 | B1 | below the threshold
54 | B2 | 3.75
